Data from publication PMC4570232 (Cell reports, 2015).

What was measured:
FLAG-tagged Ragulator = FLAG-tagged Ragulator (UniProt Q6IAA8 1-161; Q9UHA4 1-124; Q9Y2Q5 1-125; O43504 1-91; Q0VGL1 1-99, G2A); assay: pull-down
HA-GST-tagged Ragulator = HA-GST-tagged Ragulator (UniProt Q9Y2Q5 1-125; Q9UHA4 1-124; Q6IAA8 1-161; O43504 1-91; Q0VGL1 1-99, G2A); assay: pull-down

- binding result (FLAG-tagged Ragulator): binds
- binding result (HA-GST-tagged Ragulator): binds
B1: FLAG-tagged c17orf59 (natural protein)
chain: MESSRGRPGPETDLLAVAEHQALVFGGGPGRTSSEPPAGLRVSGEEETENVGGANRHPRTSPKTSSCGVVHRPEREALENEPGPQGTLSGAGSRRGAPGAEHEPSLSSRHKNPAPPEGKPSSGRDCRRGGPGGGMDVEQQEEEDNDEEAAAGSRAGRSFSSRLQDSRSLDGLSEACGGAGSSGSAESGAGGGRRATISSPLELEGTVSRHGDLTHFVANNLQLKIRLSGAPPPPPSAPARPCPAPAPTPTPAIPPIDPEVLRDLERLSRELGGRVDRLLRGLGGAVQELTALSVGCIQTYRDAVDSLGEAVDMSIKGMYTLLARCEELERALQPVQGLARQVRDIRRTLEVLEALCK
